According to PMC12500691:
“And” between values parts separate entries of the source, which are not always exact repeats. Equal entries are not always repeated.

Key:
[1] = molecular target: SARS-CoV-2 Spike_(Strep) (SARS-CoV-2 (Wuhan variant)) (UniProt P0DTC2); experiment: SPR
[2] = molecular target: SARS-CoV-2 SpikeHis (SARS-CoV-2 (Wuhan variant)) (UniProt P0DTC2); experiment: SPR
[3] = molecular target: SARS-CoV-2 extended S1 subunit (SARS-CoV-2 (Wuhan variant)) (UniProt P0DTC2); experiment: SPR
[4] = molecular target: SARS-CoV-2 Spike_(Strep) (SARS-CoV-2 (Wuhan variant)) (UniProt P0DTC2); experiment: negative stain electron microscopy

Chain of human angiotensin converting enzyme 2 (Q9BYF1 20-611): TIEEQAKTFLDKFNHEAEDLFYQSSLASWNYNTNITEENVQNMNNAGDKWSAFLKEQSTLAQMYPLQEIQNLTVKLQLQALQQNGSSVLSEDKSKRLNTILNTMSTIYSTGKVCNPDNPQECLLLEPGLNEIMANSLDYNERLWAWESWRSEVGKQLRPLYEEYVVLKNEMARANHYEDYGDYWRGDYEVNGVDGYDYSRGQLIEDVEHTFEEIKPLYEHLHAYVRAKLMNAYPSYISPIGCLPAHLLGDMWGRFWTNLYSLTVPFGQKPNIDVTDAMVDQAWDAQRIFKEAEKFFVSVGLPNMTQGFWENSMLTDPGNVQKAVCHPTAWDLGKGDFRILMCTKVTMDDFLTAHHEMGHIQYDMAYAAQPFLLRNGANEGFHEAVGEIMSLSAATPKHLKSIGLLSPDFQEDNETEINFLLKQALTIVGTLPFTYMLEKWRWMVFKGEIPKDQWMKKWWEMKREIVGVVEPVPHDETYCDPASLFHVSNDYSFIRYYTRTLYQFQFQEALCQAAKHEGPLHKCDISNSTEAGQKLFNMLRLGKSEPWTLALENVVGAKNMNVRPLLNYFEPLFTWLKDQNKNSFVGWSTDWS

Substance	IC50 [1] [nM]	Kd [1] [nM]	stoichiometry N [1]	Kd [2] [nM]	IC50 [3] [nM]	Kd [3] [nM]	stoichiometry N [4]
LL-37 (peptide)	670	410	6	410	160	200	–
gold-labeled LL-37 (peptide)	–	–	–	–	–	–	4 and 7
human angiotensin converting enzyme 2 (from UniProt Q9BYF1-1 20-611) (receptor)	–	–	–	–	–	610	–
